In patent US20170174769A1 (Regeneron, published 2017):
Where “and” joins values, the source holds several entries; their conditions need not be identical. Equal values may be shown once. One block for each binder: values may come before it.

How the values were obtained:
[1] = biological target: mouse KLB and mouse FGFR1c co-expressed on HEK293/mKLB/mFGFR1c/SRE-Luc cells (mouse); experiment: cell-based or functional assay
[2] = biological target: T1, full-length human FGFR1c on HEK293/hFGFR1c/SRE-luc cells (human, UniProt P11362 22-822); experiment: FACS on stable HEK293 cells
T1 construct: amino acids 1-733 of NP_075593
T1 sequence (P11362 other isoform, or with tags, fused parts or gaps limits assumed): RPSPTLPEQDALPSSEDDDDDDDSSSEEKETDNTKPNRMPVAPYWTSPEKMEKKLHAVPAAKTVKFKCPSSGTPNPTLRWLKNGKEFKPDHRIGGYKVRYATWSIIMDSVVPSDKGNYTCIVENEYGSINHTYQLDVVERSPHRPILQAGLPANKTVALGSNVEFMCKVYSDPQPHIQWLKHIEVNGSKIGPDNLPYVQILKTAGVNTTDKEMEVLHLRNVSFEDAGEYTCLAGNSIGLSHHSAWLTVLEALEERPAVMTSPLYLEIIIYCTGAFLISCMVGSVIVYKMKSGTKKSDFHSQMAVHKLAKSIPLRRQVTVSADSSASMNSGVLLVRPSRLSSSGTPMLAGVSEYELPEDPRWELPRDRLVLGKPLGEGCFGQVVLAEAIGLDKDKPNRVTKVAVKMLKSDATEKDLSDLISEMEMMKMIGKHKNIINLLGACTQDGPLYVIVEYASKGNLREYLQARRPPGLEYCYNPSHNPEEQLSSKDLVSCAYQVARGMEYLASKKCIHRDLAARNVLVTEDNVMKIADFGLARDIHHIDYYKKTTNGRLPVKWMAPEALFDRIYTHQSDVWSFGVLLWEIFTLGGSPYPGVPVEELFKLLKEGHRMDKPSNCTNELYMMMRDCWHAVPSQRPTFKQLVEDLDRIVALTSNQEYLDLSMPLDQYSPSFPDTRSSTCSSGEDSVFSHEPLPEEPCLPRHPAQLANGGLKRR
Description: To determine binding specificity of the monoclonal anti-KLB/FGFR1c antibodies, the antibodies were tested in a fluorescence-activated cell sorting (FACS) binding assay to cell lines expressing human FGFR1c, human KLB, and both human FGFR1c and human KLB. HEK293 cell lines were generated that stably express full-length human FGFR1c (hFGFR1c; SEQ ID NO:433) or full-length human KLB (hKLB; SEQ ID NO:434) or both human FGFR1c and human KLB, along with a luciferase reporter [SRE (serum response element)-luciferase, SA Bioscience, #CLS-010L]. The resulting cell lines, referred to as HEK293/hFGFR1c/SRE-luc, HEK293/hKLB/SRE-luc, and HEK293/hKLB/hFGFR1c/SRE-luc, respectively, were maintained in DMEM supplemented with 10% FBS, NEAA, penicillin/streptomycin, 1 μg/mL puromycin and […] hygromycin B, 1 μg/mL puromycin and 500 μg/mL G418, or all three antibiotics.
For the FACS analysis, HEK293 parental, HEK293/hFGFR1c/SRE-luc, HEK293/hKLB/SRE-luc, and HEK293/hKLB/hFGFR1c/SRE-luc cells were dissociated and plated onto 96-well v-bottom plates at 5 x 10⁵ cells/well in PBS containing 1% FBS. […] Cells were filtered and subsequently analyzed on a Hypercyte Flow Cytometer (Intellicyt Corp.). Unstained and secondary antibody alone controls were also tested for binding to all cell lines. The results were analyzed using FlowJo version 9.52 software and geometric mean (Geom. Mean) of fluorescence for viable cells was determined. Geom. mean of fluorescence for each antibody was then normalized to Geom. mean of unstained cells to obtain relative binding of antibody (binding ratios) per each cell type.

[3] = biological target: T2, extracellular domain of human FGFR1c expressed with C-terminal V5 and hexahistidine tags (human, UniProt P11362 22-376); experiment: SPR, mAb captured, 37 C
T2 construct: also called hFGFR1c-V5-6His
T2 sequence: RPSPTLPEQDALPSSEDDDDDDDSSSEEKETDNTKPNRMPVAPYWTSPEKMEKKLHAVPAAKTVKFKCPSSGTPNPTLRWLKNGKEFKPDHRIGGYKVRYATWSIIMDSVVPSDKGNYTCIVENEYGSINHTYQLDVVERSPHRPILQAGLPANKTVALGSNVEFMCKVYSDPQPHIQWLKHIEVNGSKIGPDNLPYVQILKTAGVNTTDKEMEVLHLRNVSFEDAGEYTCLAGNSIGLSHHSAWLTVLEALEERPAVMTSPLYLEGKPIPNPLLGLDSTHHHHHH
Description: (§1) Equilibrium dissociation constants (KD values) for human KLB or human FGFR1c binding to purified anti-KLB/FGFR1c monoclonal antibodies were determined using a real-time surface plasmon resonance biosensor using a Biacore T-200 or 4000 instrument. The Biacore sensor surface was derivatized by amine coupling with either a polyclonal rabbit anti-mouse antibody (GE, # BR-1008-38) or with a monoclonal mouse anti-human Fc antibody (GE, # BR-1008-39) to capture anti-KLB/FGFR1c monoclonal antibodies expressed with either a mouse Fc or a human Fc, respectively. All Biacore binding studies were performed in a buffer composed of 0.01M HEPES pH 7.4, 0.15M NaCl, 3mM EDTA, 0.05% v/v Surfactant P20 (HBST running buffer). […] Association of hKLB-HA-6His or hFGFR1c-V5-6His to the captured monoclonal antibody was monitored for 3.5 to 4 minutes and the dissociation of hKLB-HA-6His or hFGFR1c-V5-6His in HBST running buffer was monitored for 8-12 minutes. All the binding kinetics experiments were performed at 25° C. or 37° C. Kinetic association (kₐ) and dissociation (kd) rate constants were determined by fitting the real-time sensorgrams to a 1:1 binding model using Scrubber 2.0c curve fitting software. Binding dissociation equilibrium constants (KD) and dissociative half-lives (t½) were calculated from the kinetic rate constants as: […]

[4] = biological target: M. fascicularis KLB and human FGFR1c co-expressed on HEK293/MfKLB/hFGFR1c/SRE-Luc cells (M. fascicularis; human, UniProt A0A2K5WB58 1-1044); experiment: cell-based or functional assay
Chain of M. fascicularis KLB and human FGFR1c co-expressed on HEK293/MfKLB/hFGFR1c/SRE-Luc cells (chain, as listed by the source, chain 1 of 2): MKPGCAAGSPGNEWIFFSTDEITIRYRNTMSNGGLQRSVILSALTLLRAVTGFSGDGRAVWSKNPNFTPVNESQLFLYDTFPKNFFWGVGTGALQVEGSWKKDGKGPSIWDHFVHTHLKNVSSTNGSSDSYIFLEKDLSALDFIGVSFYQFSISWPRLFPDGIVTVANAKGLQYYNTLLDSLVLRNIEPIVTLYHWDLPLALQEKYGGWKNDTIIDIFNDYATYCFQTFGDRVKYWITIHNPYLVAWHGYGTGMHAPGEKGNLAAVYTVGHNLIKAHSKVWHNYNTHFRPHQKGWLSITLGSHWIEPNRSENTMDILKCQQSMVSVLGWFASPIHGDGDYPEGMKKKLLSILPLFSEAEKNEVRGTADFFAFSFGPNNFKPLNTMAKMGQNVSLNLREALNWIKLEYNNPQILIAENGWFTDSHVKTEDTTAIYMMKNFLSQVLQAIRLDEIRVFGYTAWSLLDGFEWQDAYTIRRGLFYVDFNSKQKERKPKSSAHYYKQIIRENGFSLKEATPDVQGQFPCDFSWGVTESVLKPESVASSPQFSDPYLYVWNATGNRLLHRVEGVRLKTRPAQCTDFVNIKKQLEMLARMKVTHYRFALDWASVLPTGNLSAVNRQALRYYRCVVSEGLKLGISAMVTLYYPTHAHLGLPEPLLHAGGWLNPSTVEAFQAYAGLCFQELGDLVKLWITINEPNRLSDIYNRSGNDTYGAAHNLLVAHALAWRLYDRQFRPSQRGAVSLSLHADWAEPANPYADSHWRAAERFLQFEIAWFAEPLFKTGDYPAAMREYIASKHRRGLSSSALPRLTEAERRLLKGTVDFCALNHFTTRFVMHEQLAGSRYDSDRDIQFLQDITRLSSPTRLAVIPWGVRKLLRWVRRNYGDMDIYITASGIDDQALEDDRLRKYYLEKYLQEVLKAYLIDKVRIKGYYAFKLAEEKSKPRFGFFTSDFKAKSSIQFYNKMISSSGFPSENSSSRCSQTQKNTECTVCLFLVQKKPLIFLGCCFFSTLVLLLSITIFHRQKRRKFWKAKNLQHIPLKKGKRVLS
Chain of M. fascicularis KLB and human FGFR1c co-expressed on HEK293/MfKLB/hFGFR1c/SRE-Luc cells (chain, as listed by the source, chain 2 of 2): as the sequence (P11362 other isoform, or with tags, fused parts or gaps limits assumed) above

[5] = biological target: T2, extracellular domain of human FGFR1c …; experiment: SPR, mAb captured, 25 C
Description: as §1

[6] = biological target: cell-surface human FGFR1c (amino acids 1-731 of NP_075594) with cell-surface human KLB on … (human, UniProt P11362 22-822); experiment: cell-based or functional assay
Chain of cell-surface human FGFR1c (amino acids 1-731 of NP_075594) with cell-surface human KLB on … (P11362 22-822): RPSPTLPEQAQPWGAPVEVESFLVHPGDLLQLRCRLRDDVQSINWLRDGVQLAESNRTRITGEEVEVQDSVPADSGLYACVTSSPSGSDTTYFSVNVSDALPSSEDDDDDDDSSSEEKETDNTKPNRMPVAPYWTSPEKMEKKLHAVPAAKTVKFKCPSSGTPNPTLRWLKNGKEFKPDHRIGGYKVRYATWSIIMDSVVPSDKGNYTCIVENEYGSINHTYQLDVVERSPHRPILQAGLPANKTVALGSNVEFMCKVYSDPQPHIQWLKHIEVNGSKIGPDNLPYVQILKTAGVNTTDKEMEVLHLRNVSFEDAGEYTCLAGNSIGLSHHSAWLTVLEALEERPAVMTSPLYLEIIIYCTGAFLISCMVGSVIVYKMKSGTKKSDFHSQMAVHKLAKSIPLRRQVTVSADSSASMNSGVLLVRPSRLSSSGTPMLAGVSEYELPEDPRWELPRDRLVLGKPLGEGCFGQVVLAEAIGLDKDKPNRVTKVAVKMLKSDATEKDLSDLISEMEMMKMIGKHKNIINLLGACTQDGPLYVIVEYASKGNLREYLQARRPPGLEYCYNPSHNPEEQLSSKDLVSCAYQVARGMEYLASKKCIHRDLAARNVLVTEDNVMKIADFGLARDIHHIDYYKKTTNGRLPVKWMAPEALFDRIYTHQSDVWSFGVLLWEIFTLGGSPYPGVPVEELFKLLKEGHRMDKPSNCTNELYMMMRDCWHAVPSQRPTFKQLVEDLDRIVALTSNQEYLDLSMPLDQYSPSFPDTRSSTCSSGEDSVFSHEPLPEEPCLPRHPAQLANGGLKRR

[7] = biological target: T3, extracellular domain of human KLB expressed with C-terminal HA and hexahistidine tags (human, UniProt Q86Z14 1-996); experiment: SPR, mAb captured, 37 C
T3 construct: also called hKLB-HA-6His; hKLB-HA-6his
T3 sequence: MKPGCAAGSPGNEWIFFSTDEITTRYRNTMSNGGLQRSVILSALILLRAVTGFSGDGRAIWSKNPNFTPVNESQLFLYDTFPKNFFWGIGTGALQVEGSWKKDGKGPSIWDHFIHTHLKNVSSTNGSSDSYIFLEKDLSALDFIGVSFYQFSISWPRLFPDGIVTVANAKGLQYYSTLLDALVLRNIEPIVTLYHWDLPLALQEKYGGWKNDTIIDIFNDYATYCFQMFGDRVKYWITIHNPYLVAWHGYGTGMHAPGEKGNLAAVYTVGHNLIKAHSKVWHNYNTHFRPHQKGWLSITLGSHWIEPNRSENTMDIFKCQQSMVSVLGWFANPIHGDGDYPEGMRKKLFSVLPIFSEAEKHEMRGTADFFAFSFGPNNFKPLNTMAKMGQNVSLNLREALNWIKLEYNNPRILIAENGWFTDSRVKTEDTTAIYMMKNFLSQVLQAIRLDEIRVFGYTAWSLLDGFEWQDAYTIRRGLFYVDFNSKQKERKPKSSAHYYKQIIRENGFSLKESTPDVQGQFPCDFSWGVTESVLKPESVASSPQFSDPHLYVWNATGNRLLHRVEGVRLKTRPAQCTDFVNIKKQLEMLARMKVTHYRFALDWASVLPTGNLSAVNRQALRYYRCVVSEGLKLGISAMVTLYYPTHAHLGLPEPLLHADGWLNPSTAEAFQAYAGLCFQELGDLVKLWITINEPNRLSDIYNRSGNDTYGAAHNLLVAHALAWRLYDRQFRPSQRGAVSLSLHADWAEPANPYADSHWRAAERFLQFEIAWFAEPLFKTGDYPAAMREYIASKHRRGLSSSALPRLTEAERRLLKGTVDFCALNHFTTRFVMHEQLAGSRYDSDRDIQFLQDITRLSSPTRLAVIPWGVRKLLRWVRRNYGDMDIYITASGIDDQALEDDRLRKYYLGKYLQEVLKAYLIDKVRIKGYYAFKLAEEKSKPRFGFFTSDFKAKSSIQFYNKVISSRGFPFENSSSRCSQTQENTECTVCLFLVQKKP
Description: as §1

[8] = biological target: T3, extracellular domain of human KLB …; experiment: SPR, mAb captured, 25 C
Description: as §1

[9] = biological target: human KLB and human FGFR1c co-expressed on HEK293/hKLB/hFGFR1c/SRE-luc cells (human, UniProt Q86Z14 1-1044; P11362 22-822); experiment: cell-based or functional assay

- EC50, SRE-luc activation by ligand [1]: 330 pM and 370 pM
B1: mouse FGF21 (ligand, UniProt Q9JJN1 29-210, looked up)
chain: AYPIPDSSPLLQFGGQVRQRYLYTDDDQDTEAHLEIREDGTVVGAAHRSPESLLELKALKPGVIQILGVKASRFLCQQPDGALYGSPHFDPEACSFRELLLEDGYNVYQSEAHGLPLRLPQKDSPNQDATSWGPVRFLPMPGLLHEPQDQAGFLPPEPPDVGSSDPLSMVEPLQGRSPSYAS

- binding ratio to unstained cells [2]: 9 fold
- 180 nM hFGFR1c-V5-6His Bind (RU) [3]: 1.4 RU
- IC50, inhibition of 10 nM mfFGF21 [4]: 99 pM
- Maximum Inhibition (%) of 10 nM mfFGF21 [4]: 16%
- 180 nM hFGFR1c-V5-6His Bind (RU) [5]: 1.9 RU
B2: H2bM8833N (antibody, V domains shown)
VH: QVQLVESGGGVVQPGRSLRLSCAASGFTFSRYGIHWVRQAPGKGLEWVAVIWYDGSNKYYADSLKGRFTISRDNSKNTLYLQMNSLRAEDTAVYYCARDQGNYIDYWGQGTLVTVSS
VL: AIQMTQSPSSLSASVGDRVTITCRTSQGIRNDLGWYQQKPGKVPKLLIYAASSLQSGVPSRFSGSGSGTDFTLTISSLQPEDFATYYCLQDYNYPFTFGPGTKVDIK
notes: mouse IgG2 Fc (H2bM prefix)

- 180 nM hFGFR1c-V5-6His Bind (RU) [3]: -1.2 RU
- 180 nM hFGFR1c-V5-6His Bind (RU) [5]: -0.7 RU
B3: H2bM8096N (antibody, V domains shown)
VH: QVQLVESGGGVVQPGRSLRLSCAASGFTFSSYGLHWVRQAPGKGLEWVAVIWHDGSHKYYADSVKGRFTISRDNSKNTVYLQMNSLRAEDTAVYYCARDGIPVAEDYYLYGMDVWGQGTTVTVSS
VL: EIVLTQSPGTLSLSPGERATLSCRASQSVDSSYLAWYHQKPGQAPRLLIYGASSRATGIPDRFSGSGSGTDFTLTISRLEPEDFAVYYCQQYGSSRTFGQGTKVEIK
notes: mouse IgG2 Fc (H2bM prefix)

- % Activation [6]: 1.6%
- EC50, SRE-luc activation [6]: > 5000 pM
- 20 nM hKLB-HA-6His Bind (RU) [7]: 86.7 RU
- Kd [7]: 1300 pM
- koff [7]: 0.000178 s⁻¹
- kon [7]: 137000 M⁻¹ s⁻¹
- t1/2 [7]: 1.08 h
- 180 nM hFGFR1c-V5-6His Bind (RU) [3]: 0.4 RU
- 20 nM hKLB-HA-6His Bind (RU) [8]: 27.3 RU
- Kd [8]: 318 pM
- koff [8]: 3.94e-05 s⁻¹
- kon [8]: 124000 M⁻¹ s⁻¹
- t1/2 [8]: 4.89 h
- 180 nM hFGFR1c-V5-6His Bind (RU) [5]: 0.9 RU
- binding result [5]: no binding (tested: 180 nM)
- EC50, SRE-luc activation without ligand [9]: 280 pM
- IC50, inhibition of 1 nM 6His-hFGF21 [9]: 390 pM
- Maximum Activation (%) [9]: 0.5%
- Maximum Inhibition (%) [9]: 90%
B4: scFv8092N-IgG4mutFc x scFv8900P-IgG4mutFc* Heterodimer (bispecific antibody)
chain 1: not shown
chain 2: QVQLVESGGGVVQPGRSLRLSCVASGFTFSSYGMHWVRQAPGKGLEWVAVISFDGSNKYYADSVKGRFTISRDNSKNTLYLQMNSLRPADTAVYYCAKDRSNYYYFGMDVWGQGTTVTVSSGGGGSGGGGSGGGGSDIVMTQTPLSLPVTPGEPASISCRSSQSLLDSDDGNTYLDWYLQKPGQSPQLLIYTLSYRASGVPDRFSGSGSGTDFTLKISRVEAEDVGVYYCMQRIEFPLTFGGGTKVEIKGGGGSGGGGSGGGGSESKYGPPCPPCPAPEFLGGPSVFLFPPKPKDTLMISRTPEVTCVVVDVSQEDPEVQFNWYVDGVEVHNAKTKPREEQFNSTYRVVSVLTVLHQDWLNGKEYKCKVSNKGLPSSIEKTISKAKGQPREPQVYTLPPSQEEMTKNQVSLTCLVKGFYPSDIAVEWESNGQPENNYKTTPPVLDSDGSFFLYSRLTVDKSRWQEGNVFSCSVMHEALHNRFTQKSLSLSPGK
notes: also called 8900P ScFv-Fc*/8092N ScFv-Fc; H4H8900P ScFv-Fc*/H4H8092N ScFv-Fc
